# Laboratory results from IntAct's records for PubMed 25910212.
# B1: U4/U6 small nuclear ribonucleoprotein Prp31 (Homo sapiens), Q8WWY3 (parent)
# chain: MSLADELLADLEEAAEEEEGGSYGEEEEEPAIEDVQEETQLDLSGDSVKTIAKLWDSKMFAEIMMKIEEYISKQAKASEVMGPVEAAPEYRVIVDANNLTVEIENELNIIHKFIRDKYSKRFPELESLVPNALDYIRTVKELGNSLDKCKNNENLQQILTNATIMVVSVTASTTQGQQLSEEELERLEEACDMALELNASKHRIYEYVESRMSFIAPNLSIIIGASTAAKIMGVAGGLTNLSKMPACNIMLLGAQRKTLSGFSSTSVLPHTGYIYHSDIVQSLPPDLRRKAARLVAAKCTLAARVDSFHESTEGKVGYELKDEIERKFDKWQEPPPVKQVKPLPAPLDGQRKKRGGRRYRKMKERLGLTEIRKQANRMSFGEIEEDAYQEDLGFSLGHLGKSGSGRVRQTQVNEATKARISKTLQRTLQKQSVVYGGKSTIRDRSSGTASSVAFTPLQGLEIVNPQAAEKKVAEANQKYFSSMAEFLKVKGEKSGLMST
# partner: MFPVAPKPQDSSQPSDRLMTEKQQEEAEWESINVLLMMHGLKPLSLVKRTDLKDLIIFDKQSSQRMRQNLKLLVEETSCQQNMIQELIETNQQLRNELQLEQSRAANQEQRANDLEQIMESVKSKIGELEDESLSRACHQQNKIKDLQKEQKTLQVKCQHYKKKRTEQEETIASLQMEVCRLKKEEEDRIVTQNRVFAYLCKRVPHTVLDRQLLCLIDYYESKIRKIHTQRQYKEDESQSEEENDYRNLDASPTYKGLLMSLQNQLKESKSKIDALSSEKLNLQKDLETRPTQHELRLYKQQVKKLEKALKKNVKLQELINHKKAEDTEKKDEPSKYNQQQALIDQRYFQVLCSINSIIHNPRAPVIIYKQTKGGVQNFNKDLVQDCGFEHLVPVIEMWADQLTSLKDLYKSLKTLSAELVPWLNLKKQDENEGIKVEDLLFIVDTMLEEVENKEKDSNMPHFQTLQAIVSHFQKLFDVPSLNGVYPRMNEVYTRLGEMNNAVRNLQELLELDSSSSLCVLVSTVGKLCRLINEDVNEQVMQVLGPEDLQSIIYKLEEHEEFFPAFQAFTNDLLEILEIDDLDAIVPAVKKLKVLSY
# B2: 2'-5'-oligoadenylate synthase 1 (Homo sapiens), P00973-2 (parent)
# chain: MMDLRNTPAKSLDKFIEDYLLPDTCFRMQINHAIDIICGFLKERCFRGSSYPVCVSKVVKGGSSGKGTTLRGRSDADLVVFLSPLTTFQDQLNRRGEFIQEIRRQLEACQRERAFSVKFEVQAPRWGNPRALSFVLSSLQLGEGVEFDVLPAFDALGQLTGGYKPNPQIYVKLIEECTDLQKEGEFSTCFTELQRDFLKQRPTKLKSLIRLVKHWYQNCKKKLGKLPPQYALELLTVYAWERGSMKTHFNTAQGFRTVLELVINYQQLCIYWTKYYDFKNPIIEKYLRRQLTKPRPVILDPADPTGNLGGGDPKGWRQLAQEAEAWLNYPCFKNWDGSPVSSWILLVRPPASSLPFIPAPLHEA
# B3: Beta-crystallin A4 (Homo sapiens), P53673 (parent)
# chain: MTLQCTKSAGPWKMVVWDEDGFQGRRHEFTAECPSVLELGFETVRSLKVLSGAWVGFEHAGFQGQQYILERGEYPSWDAWGGNTAYPAERLTSFRPAACANHRDSRLTIFEQENFLGKKGELSDDYPSLQAMGWEGNEVGSFHVHSGAWVCSQFPGYRGFQYVLECDHHSGDYKHFREWGSHAPTFQVQSIRRIQQ
# partner: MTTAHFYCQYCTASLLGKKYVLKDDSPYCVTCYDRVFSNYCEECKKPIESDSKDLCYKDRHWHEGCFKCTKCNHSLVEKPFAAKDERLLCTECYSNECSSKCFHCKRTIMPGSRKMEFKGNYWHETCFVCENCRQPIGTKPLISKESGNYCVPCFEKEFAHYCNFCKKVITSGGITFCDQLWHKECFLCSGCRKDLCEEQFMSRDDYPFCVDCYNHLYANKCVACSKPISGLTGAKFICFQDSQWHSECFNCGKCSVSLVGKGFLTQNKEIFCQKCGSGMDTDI
# B4: Zinc finger CCHC domain-containing protein 12 (Homo sapiens), Q6PEW1 (parent)
# chain: MASIIARVGNSRRLNAPLPPWAHSMLRSLGRSLGPIMASMADRNMKLFSGRVVPAQGEETFENWLTQVNGVLPDWNMSEEEKLKRLMKTLRGPAREVMRVLQATNPNLSVADFLRAMKLVFGESESSVTAHGKFFNTLQAQGEKASLYVIRLEVQLQNAIQAGIIAEKDANRTRLQQLLLGGELSRDLRLRLKDFLRMYANEQERLPNFLELIRMVREEEDWDDAFIKRKRPKRSESMVERAVSPVAFQGSPPIVIGSADCNVIEIDDTLDDSDEDVILVESQDPPLPSWGAPPLRDRARPQDEVLVIDSPHNSRAQFPSTSGGSGYKNNGPGEMRRARKRKHTIRCSYCGEEGHSKETCDNESDKAQVFENLIITLQELTHTEMERSRVAPGEYNDFSEPL
# B5: Lipopolysaccharide-induced tumor necrosis factor-alpha factor (Homo sapiens), Q99732 (parent)
# chain: MSVPGPYQAATGPSSAPSAPPSYEETVAVNSYYPTPPAPMPGPTTGLVTGPDGKGMNPPSYYTQPAPIPNNNPITVQTVYVQHPITFLDRPIQMCCPSCNKMIVSQLSYNAGALTWLSCGSLCLLGCIAGCCFIPFCVDALQDVDHYCPNCRALLGTYKRL
# Variants of: B1
# Settings: with cep70_human CEP70, Q8NHQ1
row,effect of a mutation on the interaction,Variant
1,with no effect,L107V

# Variants of: B2
# Settings: with exoc5_human EXOC5, O00471
# Chain of exoc5_human EXOC5, O00471 (O00471 whole entry): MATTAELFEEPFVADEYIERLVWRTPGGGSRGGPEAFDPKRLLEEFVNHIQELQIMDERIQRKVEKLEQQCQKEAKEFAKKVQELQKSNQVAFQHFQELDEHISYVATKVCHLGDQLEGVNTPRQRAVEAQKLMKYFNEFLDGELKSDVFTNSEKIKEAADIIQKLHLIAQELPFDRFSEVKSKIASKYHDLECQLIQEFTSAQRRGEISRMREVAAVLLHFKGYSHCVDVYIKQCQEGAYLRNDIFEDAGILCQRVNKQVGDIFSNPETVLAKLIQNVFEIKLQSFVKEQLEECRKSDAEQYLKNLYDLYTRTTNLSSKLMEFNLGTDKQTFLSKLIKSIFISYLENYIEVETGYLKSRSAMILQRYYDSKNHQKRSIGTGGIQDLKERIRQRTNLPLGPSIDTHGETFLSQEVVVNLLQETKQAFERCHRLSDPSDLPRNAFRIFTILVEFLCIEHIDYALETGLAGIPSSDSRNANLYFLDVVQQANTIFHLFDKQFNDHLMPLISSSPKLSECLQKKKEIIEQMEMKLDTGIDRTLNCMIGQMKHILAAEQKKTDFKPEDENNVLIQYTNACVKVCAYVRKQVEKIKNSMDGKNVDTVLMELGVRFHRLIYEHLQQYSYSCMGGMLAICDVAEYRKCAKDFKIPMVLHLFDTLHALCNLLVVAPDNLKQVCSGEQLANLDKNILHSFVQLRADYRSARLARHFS
row,effect of a mutation on the interaction,Variant
1,with no effect,R242Q

# Variants of: B2
# Settings: with actn1_human ACTN1, P12814
# Chain of actn1_human ACTN1, P12814 (P12814 whole entry): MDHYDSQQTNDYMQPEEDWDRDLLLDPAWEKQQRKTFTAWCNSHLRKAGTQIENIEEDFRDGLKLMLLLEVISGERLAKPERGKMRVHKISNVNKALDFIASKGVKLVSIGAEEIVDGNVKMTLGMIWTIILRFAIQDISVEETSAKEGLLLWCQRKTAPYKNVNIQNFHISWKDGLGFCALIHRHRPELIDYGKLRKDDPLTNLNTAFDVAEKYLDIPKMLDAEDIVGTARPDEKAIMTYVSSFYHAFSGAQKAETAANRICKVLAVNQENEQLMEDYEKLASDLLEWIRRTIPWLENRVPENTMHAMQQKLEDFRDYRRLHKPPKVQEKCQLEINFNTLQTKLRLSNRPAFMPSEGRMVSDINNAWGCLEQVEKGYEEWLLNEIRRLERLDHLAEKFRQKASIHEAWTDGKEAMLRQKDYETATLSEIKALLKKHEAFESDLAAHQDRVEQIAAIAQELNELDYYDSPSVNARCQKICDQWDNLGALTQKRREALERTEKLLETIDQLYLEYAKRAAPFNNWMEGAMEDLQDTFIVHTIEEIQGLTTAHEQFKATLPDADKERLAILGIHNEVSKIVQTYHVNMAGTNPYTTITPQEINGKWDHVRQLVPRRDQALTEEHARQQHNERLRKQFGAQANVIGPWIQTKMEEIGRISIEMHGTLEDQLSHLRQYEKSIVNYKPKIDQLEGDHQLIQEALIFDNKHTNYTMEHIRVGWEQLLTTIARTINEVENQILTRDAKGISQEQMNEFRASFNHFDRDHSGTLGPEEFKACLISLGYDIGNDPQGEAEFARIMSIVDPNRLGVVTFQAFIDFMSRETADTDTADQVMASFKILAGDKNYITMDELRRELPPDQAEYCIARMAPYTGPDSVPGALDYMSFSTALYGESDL
row,effect of a mutation on the interaction,Variant
1,with no effect,R242Q

# Variants of: B3
# Settings: with fhl5_human FHL5, Q5TD97
row,Variant,effect of a mutation on the interaction
1,L69P,disrupting interaction strength
2,F94S,disrupting interaction strength
3,V36M,disrupting interaction strength

# Variants of: B4
# Settings: with pnma1_human PNMA1, Q8ND90
# Chain of pnma1_human PNMA1, Q8ND90 (Q8ND90 whole entry): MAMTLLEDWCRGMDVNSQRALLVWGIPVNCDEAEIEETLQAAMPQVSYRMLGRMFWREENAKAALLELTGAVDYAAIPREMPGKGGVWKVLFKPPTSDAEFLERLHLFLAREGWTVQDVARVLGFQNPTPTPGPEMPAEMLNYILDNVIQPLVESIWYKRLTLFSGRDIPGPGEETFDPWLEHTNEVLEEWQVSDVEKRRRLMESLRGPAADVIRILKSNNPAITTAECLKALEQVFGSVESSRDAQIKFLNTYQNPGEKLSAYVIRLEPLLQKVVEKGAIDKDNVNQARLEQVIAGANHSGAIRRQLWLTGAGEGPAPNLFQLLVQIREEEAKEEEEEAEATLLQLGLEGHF
row,effect of a mutation on the interaction,Variant
1,with no effect,R7C
2,with no effect,T344I

# Variants of: B4
# Settings: with tfcp2_human TFCP2, Q12800
# Chain of tfcp2_human TFCP2, Q12800 (Q12800 whole entry): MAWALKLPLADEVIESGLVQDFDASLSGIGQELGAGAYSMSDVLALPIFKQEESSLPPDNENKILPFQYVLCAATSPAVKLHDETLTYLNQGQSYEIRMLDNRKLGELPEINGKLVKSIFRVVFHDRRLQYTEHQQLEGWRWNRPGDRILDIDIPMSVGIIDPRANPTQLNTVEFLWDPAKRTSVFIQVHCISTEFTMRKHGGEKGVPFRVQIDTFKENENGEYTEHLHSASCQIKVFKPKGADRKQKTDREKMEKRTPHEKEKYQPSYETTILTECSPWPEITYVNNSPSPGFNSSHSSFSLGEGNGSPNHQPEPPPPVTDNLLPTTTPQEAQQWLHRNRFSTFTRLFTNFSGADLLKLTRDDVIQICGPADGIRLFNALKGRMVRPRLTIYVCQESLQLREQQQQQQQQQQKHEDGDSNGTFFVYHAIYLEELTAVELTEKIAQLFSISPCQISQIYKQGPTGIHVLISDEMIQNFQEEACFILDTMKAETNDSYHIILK
row,effect of a mutation on the interaction,Variant
1,with no effect,R7C
2,with no effect,T344I

# Variants of: B5
# Settings: with UBQLN1, Q9UMX0-2
# Chain of UBQLN1, Q9UMX0-2 (Q9UMX0 other isoform, or with tags, fused parts or gaps): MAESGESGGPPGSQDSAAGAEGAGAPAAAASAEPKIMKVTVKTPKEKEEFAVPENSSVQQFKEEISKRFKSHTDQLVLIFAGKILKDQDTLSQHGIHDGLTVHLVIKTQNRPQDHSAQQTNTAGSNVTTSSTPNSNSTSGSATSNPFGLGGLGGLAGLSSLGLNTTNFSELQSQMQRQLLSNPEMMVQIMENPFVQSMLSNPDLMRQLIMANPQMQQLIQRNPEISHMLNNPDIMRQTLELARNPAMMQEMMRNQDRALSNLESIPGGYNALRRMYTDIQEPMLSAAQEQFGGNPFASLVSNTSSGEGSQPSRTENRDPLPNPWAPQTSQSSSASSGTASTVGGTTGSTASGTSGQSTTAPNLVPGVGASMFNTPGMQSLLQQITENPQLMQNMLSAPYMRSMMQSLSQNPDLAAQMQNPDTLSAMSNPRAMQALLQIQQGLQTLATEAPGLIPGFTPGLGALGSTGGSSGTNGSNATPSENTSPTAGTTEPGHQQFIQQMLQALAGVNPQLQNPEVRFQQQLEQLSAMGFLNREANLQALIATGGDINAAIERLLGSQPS
row,effect of a mutation on the interaction,Variant
1,disrupting interaction strength,A111G
2,disrupting interaction strength,G112S

# Variants of: B5
# Settings: with stam2_human STAM2, O75886
row,effect of a mutation on the interaction,Variant
1,disrupting interaction strength,A111G
2,disrupting interaction strength,G112S

# Variants of: B5
# Settings: with reep6_human REEP6, Q96HR9
# Chain of reep6_human REEP6, Q96HR9 (Q96HR9 whole entry): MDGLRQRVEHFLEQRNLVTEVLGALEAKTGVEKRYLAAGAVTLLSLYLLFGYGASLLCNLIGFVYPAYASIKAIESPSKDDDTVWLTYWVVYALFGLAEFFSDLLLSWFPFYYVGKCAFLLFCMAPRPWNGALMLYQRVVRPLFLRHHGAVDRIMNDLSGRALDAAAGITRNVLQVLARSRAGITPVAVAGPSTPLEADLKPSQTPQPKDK
row,effect of a mutation on the interaction,Variant
1,disrupting interaction strength,A111G
2,disrupting interaction strength,G112S

# Variants of: B5
# Settings: with hgs_human HGS
row,effect of a mutation on the interaction,Variant
1,disrupting interaction strength,A111G
2,disrupting interaction strength,G112S

# Variants of: B5
# Settings: with OPTN
row,effect of a mutation on the interaction,Variant
1,disrupting interaction strength,A111G
2,disrupting interaction strength,G112S
